By Km is commonly meant the substrate concentration at which the rate is half of its maximum.

The values that follow come from PMC2811425.

Data set [1] relates to C[C@H](O)C(=O)O. The data set can be described thus: cells, lysate or membranes.
Data set [2] deals with CC(=O)C(=O)O. As to the kind of experiment: cells, lysate or membranes.

Turning to MCT1 (Rattus norvegicus), the Km in data set [1] stood at 5.7 ± 1.2 mM; in data set [2] it was 1.2 ± 0.2 mM.
